Data set [1] addresses T1, TmMtaD (SAH deaminase from Thermotoga maritima) (Thermotoga maritima, UniProt Q9X034).
T1 sequence (Q9X034 1-406): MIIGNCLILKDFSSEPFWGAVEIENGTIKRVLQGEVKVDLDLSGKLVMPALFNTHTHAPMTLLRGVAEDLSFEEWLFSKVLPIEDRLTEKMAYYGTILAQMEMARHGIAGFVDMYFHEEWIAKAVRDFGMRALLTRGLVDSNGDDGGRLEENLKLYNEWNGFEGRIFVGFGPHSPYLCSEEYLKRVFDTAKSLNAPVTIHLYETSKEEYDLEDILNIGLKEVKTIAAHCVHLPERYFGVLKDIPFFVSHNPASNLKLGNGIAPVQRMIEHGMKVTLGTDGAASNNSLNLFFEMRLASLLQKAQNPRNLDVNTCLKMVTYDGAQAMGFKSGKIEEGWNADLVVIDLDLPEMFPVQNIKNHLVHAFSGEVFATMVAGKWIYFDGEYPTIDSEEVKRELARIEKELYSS
Put plainly: GDH-coupled NADH oxidation at […] nm. Particulars: 50 mM potassium phosphate pH 7.5, 50 mM KCl, 20 mM MgCl2. It is filed as biochemical.

Another data set relates to NCCc1ccc(O)c(O)c1. Put plainly: purified protein. Particulars: 200 μM SAM, 50 mM HEPES pH 7.5, 100 mM KCl, 20 mM MgCl2, 25 °C.
Substrate in the data set “purified protein”: NCCc1ccc(O)c(O)c1
The data set is described as follows: purified protein. It is filed as biochemical, Rattus norvegicus. Particulars: 200 μM SAM, 50 mM HEPES pH 7.5, 100 mM KCl, 20 mM MgCl2, 25 °C.

As usually defined, the Km is the substrate concentration at which the rate is half of its maximum. On to `Nc1ncnc2c1ncn2[C@@H]1O[C@H](CSCC[C@H](N)C(=O)O)[C@@H](O)[C@H]1O` [SAH], for which, in data set [1], the Km was found to be 180 ± 60 µM.

As usually defined, the kcat is the number of substrate molecules converted per active site and unit of time at saturation. “MxSafC (SafC O-MT from Myxococcus xanthus) (Myxococcus xanthus)”: in the data set with NCCc1ccc(O)c(O)c1, the Km is 270 ± 14 µM and the kcat worked out at 0.039 ± 0.001 s⁻¹.

B1: RnCOMT (catechol-O-MT from Rattus norvegicus) (Rattus norvegicus) (protein)
chain: MGDTKEQRILRYVQQNAKPGDPQSVLEAIDTYCTQKEWAMNVGDAKGQIMDAVIREYSPSLVLELGAYCGYSAVRMARLLQPGARLLTMEMNPDYAAITQQMLNFAGLQDKVTILNGASQDLIPQLKKKYDVDTLDMVFLDHWKDRYLPDTLLLEKCGLLRKGTVLLADNVIVPGTPDFLAYVRGSSSFECTHYSSYLEYMKVVDGLEKAIYQGPSSPDKS
For B1, in the data set “purified protein”, the Km came to 144 ± 15 µM and the kcat turned out to be 0.072 ± 0.002 s⁻¹.

Source of the values: article PMC9542197 (Chembiochem, 2022).
